The text below walks through data of paper PMC11413682.

The target of assay [1] is CUL2^ZYG11B (residues 490–728) (human) (UniProt Q9C0D3). In words: ITC; SNX11-degron peptide titrated into CUL2^ZYG11B that was pre-incubated with the ORF10 peptide (pre-formed ZYG11B/ORF10 N5 complex).
The target is the same in assay [2]. Description: ITC; MicroCal iTC200; peptides (0.5–1 mmol/L) in the syringe, CUL2^ZYG11B(490–728) (0.03 mmol/L) in the cell; 18 injections of 2 μL; repeated 3 times.

CUL2^ZYG11B (residues 490–728) (human), sequence (Q9C0D3 490-728): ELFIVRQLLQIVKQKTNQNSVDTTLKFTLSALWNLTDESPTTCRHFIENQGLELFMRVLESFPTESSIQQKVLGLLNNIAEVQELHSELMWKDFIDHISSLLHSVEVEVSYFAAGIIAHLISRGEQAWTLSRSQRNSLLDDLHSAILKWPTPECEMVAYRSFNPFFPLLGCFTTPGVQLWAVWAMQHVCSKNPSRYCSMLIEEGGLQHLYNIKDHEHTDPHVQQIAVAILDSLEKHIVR

In turn, SNX11-degron peptide had a fold lower affinity for CUL2^ZYG11B pre-bound to the ORF10 peptide than for CUL2^ZYG11B alone in assay [1] of 13 fold. SARS-CoV-2 ORF10 N4 peptide had a Kd in assay [2] of 5.18 µM.

Consider SARS-CoV-2 ORF10 N3 peptide, for which, in assay [2], the dissociation constant (Kd) is 14.5 µM.
